From article PMC3177975

How the values were obtained:
Settings in all cases: amino acid activation with ATP; no EF-P stated
[1] = substrate: NCCC[C@@H](N)CC(=O)O; assay: steady-state kinetics of amino acid activation; type: biochemical, Escherichia coli
[2] = substrate: NCCC[C@H](N)CC(=O)O; assay: steady-state kinetics of amino acid activation; type: biochemical, Escherichia coli
purified protein = substrate: NCCCC[C@H](N)C(=O)O; assay: purified protein

| Protein | Km [1] | kcat [1] | kcat/Km [1] | Km [2] | kcat [2] | kcat/Km [2] | Km (purified protein) | kcat (purified protein) | kcat/Km (purified protein) |
| --- | --- | --- | --- | --- | --- | --- | --- | --- | --- |
| PoxA (Escherichia coli K-12) (protein) MSETASWQPSASIPNLLKRAAIMAEIRRFFADRGVLEVETPCMSQATVTDIHLVPFETRFVGPGHSQGMNLWLMTSPEYHMKRLLVAGCGPVFQLCRSFRNEEMGRYHNPEFTMLEWYRPHYDMYRLMNEVDDLLQQVLDCPAAESLSYQQAFLRYLEIDPLSADKTQLREVAAKLDLSNVADTEEDRDTLLQLLFTFGVEPNIGKEKPTFVYHFPASQASLAQISTEDHRVAERFEVYYKGIELANGFHELTDAREQQQRFEQDNRKRAARGLPQHPIDQNLIEALKVGMPDCSGVALGVDRLVMLALGAETLAEVIAFSVDRA | 213 ± 31 µM | 0.6 ± 0.055 s⁻¹ | 2820 M⁻¹ s⁻¹ | 6.95 ± 1.894 mM | 0.0467 s⁻¹ | 6.67 M⁻¹ s⁻¹ | 8.6 ± 1.2 mM | 0.25 s⁻¹ | 28.3 M⁻¹ s⁻¹ |
| PoxA (Escherichia coli K-12; A298G) (protein) MSETASWQPSASIPNLLKRAAIMAEIRRFFADRGVLEVETPCMSQATVTDIHLVPFETRFVGPGHSQGMNLWLMTSPEYHMKRLLVAGCGPVFQLCRSFRNEEMGRYHNPEFTMLEWYRPHYDMYRLMNEVDDLLQQVLDCPAAESLSYQQAFLRYLEIDPLSADKTQLREVAAKLDLSNVADTEEDRDTLLQLLFTFGVEPNIGKEKPTFVYHFPASQASLAQISTEDHRVAERFEVYYKGIELANGFHELTDAREQQQRFEQDNRKRAARGLPQHPIDQNLIEALKVGMPDCSGVGLGVDRLVMLALGAETLAEVIAFSVDRA | 414 ± 63 µM | 0.283 ± 0.00833 s⁻¹ | 683 M⁻¹ s⁻¹ |  |  |  | 0.344 ± 0.044 mM | 0.0633 s⁻¹ | 185 M⁻¹ s⁻¹ |
